Measured values taken from patent US20180362629A1 (ZOETIS BELGIUM S A, published 2018).
Where “and” joins values, the source holds several entries; their conditions need not be identical. Equal values may be shown once.

T1: recombinant canine β NGF (canine, UniProt Q29074 110-229 (pig entry))
T1 construct: also called canine NGF
T1 chain: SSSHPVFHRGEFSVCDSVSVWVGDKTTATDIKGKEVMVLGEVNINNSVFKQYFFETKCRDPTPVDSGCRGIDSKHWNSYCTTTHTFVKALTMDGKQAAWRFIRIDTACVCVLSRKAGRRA


Columns and labels:
[1] = molecular target: T2, human β NGF (human, UniProt P01138 122-241, biotinylated in the TrkA inhibition ELISA (sites not given)); assay: TrkA inhibition ELISA; biotin-hNGF bound to rat TrkA/Fc; supernatant 25-fold
Protocol: (§1) The plates were washed three times with PBS/Tween. The plates were blocked with 200 μl/well of 2% milk in PBS for 1 hour at room temperature. The plates were washed three times as above. Rat TrkA/Fc chimera (R&D Systems, catalog #1056-TK) was added at 1 μg/ml (50 μl/well) in PBS/0.1% BSA and then incubated for 1 hour at room temperature. Biotinylated human NGF was titered and pre-incubated with anti-NGF antibody supernatants diluted 1-fold, 5-fold, and 25-fold, or purified anti-NGF mAbs diluted to 0.08, 0.4, 2, or 10 μg/ml for 1 hour at room temperature on a plate shaker. The negative control was unrelated conditioned supernatant. The positive control was sera from a mouse immunized with NGF. The plates were washed and then 50 μl of each biotinylated NGF/Ab mix was added to the appropriate wells. The plates were incubated for 1 hour at room temperature. The plates were washed. […] The plates were incubated for 30 min at room temperature. The plates were washed. 50 μl of TMB (Invitrogen, cat #00-2023) was added and the reaction was stopped using 2N H₂SO₄ (VWR, cat # BDH3500-1). The absorbance at 450 nm was read on a Spectromax 2E plate reader (Molecular Devices), and the absorbance readings are shown in Table 5 The numerical value indicates binding of biotinylated human β NGF to rat TrkA/Fc chimera.

[2] = molecular target: T2, human β NGF; assay: TrkA inhibition ELISA; biotin-hNGF bound to rat TrkA/Fc; supernatant 5-fold
Protocol: as §1

[3] = molecular target: T2, human β NGF; assay: TrkA inhibition ELISA; biotin-hNGF bound to rat TrkA/Fc; supernatant 1-fold
Protocol: as §1

[4] = molecular target: T1, recombinant canine β NGF; assay: SPR (Biacore), mAb captured on goat anti-mouse IgG Fc, canine NGF injected; Expt 1
Protocol: (§2) A biomolecular protein interaction analysis was used to evaluate the binding kinetics of the interaction between the purified anti-NGF hybridoma antibodies and recombinant canine β NGF. The antibodies were captured using a goat anti-mouse IgG FC (10000 RU) surface which was directly immobilized to a CM5 chip using an amine coupling procedure according to the manufacturer's instructions (Biacore). A sample size of 5 μl of antibody at a concentration of 1 μg/ml was captured at 10 μl minute. Recombinant canine NGF was used as the antigen. Canine NGF was injected at 75 μl/min (concentration range: 5-0.039 nM) for mouse antibodies. The association rate was monitored for 3.3 minutes and the dissociation rate was monitored for 10 minutes. Aliquots of canine NGF were also simultaneously injected over a reference reaction CM surface to record any nonspecific binding background. The instrument sensitivity for on-rate is I×IO⁷, such that any on-rate that is faster than I×IO⁷ may not be accurately measured; the instrument sensitivity for off-rate is […], such that any off-rate that is slower than 1×10⁻⁶ may not be accurately measured. Therefore, an on-rate that is faster than 1×10⁷ is recorded as >1×10⁷ and an off-rate that is slower than 1×10⁻⁶ is recorded as <1×10⁻⁶.

[5] = molecular target: T1, recombinant canine β NGF; assay: direct ELISA, canine NGF coated at 1 µg/ml, mAb at 10 µg/ml
Protocol: (§3) To determine if purified mouse anti-NGF mAbs bind to canine β NGF, ELISA plates were coated with 50 μl/well of canine NGF (Abbott Laboratories) at 1 μg/ml in PBS and incubated over night at 4° C. The plates were washed three times with PBS+Tween buffer. The plates were blocked with 200 μl/well of 2% milk in PBS for 1 hour at room temperature. The plates were washed three times as above. Purified antibodies were diluted to 0.4, 2, or 10 μg/ml. 50 μl of each concentration of purified antibody was added to the plates. The plates were incubated for 1 hour at room temperature. The plates were washed. 50 μl of a 5000-fold diluted goat anti-mouse IgG Fc-HRP (Thermo, catalog #31439) was added. The plates were incubated for 1 hour at room temperature. 50 μl of TMB (Invitrogen, catalog #00-2023) was added and the reaction was stopped using 2N H₂SO₄ (VWR, catalog # BDH3500-1). The absorbance at 450 nm was read on a Spectromax 2E plate reader (Molecular Devices). The results are shown in Table 9, and the numerical value indicates binding of mouse anti-NGF antibodies to canine β NGF.

[6] = molecular target: T1, recombinant canine β NGF; assay: direct ELISA, canine NGF coated at 1 µg/ml, mAb at 0.4 µg/ml
Protocol: as §3

[7] = molecular target: T1, recombinant canine β NGF; assay: direct ELISA, canine NGF coated at 1 µg/ml, mAb at 2 µg/ml
Protocol: as §3

[8] = molecular target: T1, recombinant canine β NGF; assay: SPR (Biacore), mAb captured on goat anti-mouse IgG Fc, canine NGF injected; Expt 2
Protocol: as §2

[9] = molecular target: T1, recombinant canine β NGF; assay: cell-based or functional assay
[10] = molecular target: T1, recombinant canine β NGF; assay: SPR (Biacore), mAb captured on goat anti-mouse IgG Fc, canine NGF injected; Average
Protocol: as §2

[11] = molecular target: T1, recombinant canine β NGF; assay: cell-based or functional assay

T2 sequence (P01138 122-241 limits assumed): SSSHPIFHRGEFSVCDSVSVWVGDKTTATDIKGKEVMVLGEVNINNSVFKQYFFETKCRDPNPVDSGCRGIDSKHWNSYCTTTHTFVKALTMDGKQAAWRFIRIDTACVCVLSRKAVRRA

| Molecule | absorbance at 450 nm [1] | absorbance at 450 nm [2] | absorbance at 450 nm [3] | Kd [4] [nM] | koff [4] [s⁻¹] | kon [4] [M⁻¹ s⁻¹] | absorbance at 450 nm [5] [A450] | absorbance at 450 nm [6] [A450] | absorbance at 450 nm [7] [A450] | Kd [8] [nM] | koff [8] [s⁻¹] | kon [8] [M⁻¹ s⁻¹] | IC50, canine NGF-induced TF-1 cell proliferation (70 pM canine NGF) [9] | Kd [10] [nM] | koff [10] [s⁻¹] | kon [10] [M⁻¹ s⁻¹] | PathHunter IC50 (441 pM canine NGF) [11] [nM] | SureFire pERK IC50 (128 pM canine β NGF) [11] |
| --- | --- | --- | --- | --- | --- | --- | --- | --- | --- | --- | --- | --- | --- | --- | --- | --- | --- | --- |
| unrelated conditioned supernatant (negative control) | 0.462 OD450 and 0.318 OD450 and 0.386 OD450 | 0.456 OD450 and 0.336 OD450 and 0.388 OD450 | 0.465 OD450 and 0.372 OD450 and 0.386 OD450 | – | – | – | – | – | – | – | – | – | – | – | – | – | – | – |
| 3F7 hybridoma supernatant (antibody, mouse IgG1, V domains shown, Tested as supernatant of the hybridoma before subcloning; mouse IgG1 kappa; also called ML130-3F7.4A8) VH: QVQLKESGPGLVAPSQSLSITCTVSGFSLTGYNINWVRQPPGKGLEWLGMIWGYGDTDYNSALKSRLSISKDNSKSQVFLKMNSLQTDDTARYYCARDHYGGNDWYFDVWGTGTTVTVSS VL: DIQMTQTTSSLSASLGDRVTITCRASQDITNYLNWYQQKPDGTVKLLIYYTSRLHSGVPSRFSGSGSGTDYSLTISNLDQEDIATYFCQQGKTLPRTFGGGTKLEIKR | 0.149 OD450 | 0.083 OD450 | 0.056 OD450 | – | – | – | – | – | – | – | – | – | – | – | – | – | – | – |
| PR-1254973 (antibody, mouse IgG2b, V domains shown, also called 2B12; ML129-2B12.5G9) VH: QVQLQQPGAELVKPGASVKLSCKASGYTFTNYWMHWVKQRPGQGLEWIGRIDPYGGGTKHNEKFKRKATVTADKSSSTAYILLSSLTSEDSAVYYCTRSGYDYYFDVWGTGTTVTVSS VL: DIQMTQSPASLSASVGETVTVTCRASENIYSFLAWHQQKQGKSPQLLVYNANTLAEGVPSRFSGSGSGTQFSLKINSLQPEDFGSYYCQHHFGTPFTFGSGTKLEIKR | – | – | – | < 0.0121 | 0.000121 | > 1e+07 | 0.905 | 0.769 | 0.836 | < 0.0138 | 0.000138 | > 1e+07 | 39 pM | < 0.013 | 0.00013 | > 1e+07 | 0.143 | 18.8 pM |
| PR-1254977 (antibody, mouse IgG1, V domains shown, also called 21D4; ML129-21D4.4A11) VH: EVQLQQSGAELVKPGASVKLSCTASGFNIKDTYIYWVKQRPEQGLEWIGRIDPANGNTIYASKFQGKASITADTSSNTAYMQLSSLTSGDTAVYYCAGYGYYAYWGQGTTLTVSS VL: DVVLTQTPLSLPVNIGDQASISCKSTKSLLNGDGFTYLDWYLQKPGQSPQLLIYLVSNRFSGVPDRFSGSGSGTDFTLKISRVEAEDLGVYYCFESNYLFTFGSGTKLEMKR | – | – | – | < 0.0139 | 0.000139 | > 1e+07 | 0.552 | 0.223 | 0.414 | < 0.016 | 0.00016 | > 1e+07 | 0.217 nM | < 0.015 | 0.00015 | > 1e+07 | 0.181 | 17.6 pM |
| 23F1 hybridoma supernatant (antibody, mouse IgG1, V domains shown, Tested as supernatant of the hybridoma before subcloning; mouse IgG1 kappa; also called ML129-23F1.4G3) VH: EVQLQQSGAELVKPGASVKLSCTASGFNIKDTYIYWVKQRPEQGLEWIGRIDPANGNTIYASKFQGKATITADTSSNTAYMQLSSLTSGDTAVYYCAGYGYYAYWGQGTTLTVSS VL: DVVLTQTPLSLPVNIGDQASISCKSTKSLLNGDGFTYLDWYLQKPGQSPQLLIYLVSNRFSGVPDRFSGSGSGTDFTLKISRVEAEDLGVYYCFESNYLFTFGSGTKLEMKR | 0.276 OD450 | 0.14 OD450 | 0.108 OD450 | – | – | – | – | – | – | – | – | – | – | – | – | – | – | – |
| 21D4 hybridoma supernatant (antibody, mouse IgG1, V domains shown, Tested as supernatant of the hybridoma before subcloning; mouse IgG1 kappa; also called ML129-21D4.4A11) VH: EVQLQQSGAELVKPGASVKLSCTASGFNIKDTYIYWVKQRPEQGLEWIGRIDPANGNTIYASKFQGKASITADTSSNTAYMQLSSLTSGDTAVYYCAGYGYYAYWGQGTTLTVSS VL: DVVLTQTPLSLPVNIGDQASISCKSTKSLLNGDGFTYLDWYLQKPGQSPQLLIYLVSNRFSGVPDRFSGSGSGTDFTLKISRVEAEDLGVYYCFESNYLFTFGSGTKLEMKR | 0.404 OD450 | 0.242 OD450 | 0.133 OD450 | – | – | – | – | – | – | – | – | – | – | – | – | – | – | – |
| PR-1254972 (antibody, mouse IgG2b, V domains shown, also called 20B10; ML129-20B10.3F4) VH: EVHLVESGGGLVKPGGFLILSCAASGFTFSDYYMFWIRQTPGKRLEWVATISDGGSYTYYTDNVKGRFTISRDNVKNNLYLQMSHLKSADTAMYYCARDWSDSEGFAYWGQGTLVTVSA VL: DVLMTQTPLSLPVSLGDQASISCRSSQSIVQSNGNTYLEWYLQKPGQSPKLLIYKVSNRFSGVPDRFSGSGSGTDFTLKISRVEAEDLGVYYCFQGSHVPFTFGSGTKLEIKR | – | – | – | < 0.314 | 0.00314 | > 1e+07 | 0.154 | 0.071 | 0.091 | < 0.321 | 0.00321 | > 1e+07 | 0.303 nM | < 0.318 | 0.00318 | > 1e+07 | 0.313 | 0.228 nM |
| 20B10 hybridoma supernatant (antibody, mouse IgG2b, V domains shown, Tested as supernatant of the hybridoma before subcloning; mouse IgG2b kappa; also called ML129-20B10.3F4) VH: EVHLVESGGGLVKPGGFLILSCAASGFTFSDYYMFWIRQTPGKRLEWVATISDGGSYTYYTDNVKGRFTISRDNVKNNLYLQMSHLKSADTAMYYCARDWSDSEGFAYWGQGTLVTVSA VL: DVLMTQTPLSLPVSLGDQASISCRSSQSIVQSNGNTYLEWYLQKPGQSPKLLIYKVSNRFSGVPDRFSGSGSGTDFTLKISRVEAEDLGVYYCFQGSHVPFTFGSGTKLEIKR | 0.289 OD450 | 0.2 OD450 | 0.166 OD450 | – | – | – | – | – | – | – | – | – | – | – | – | – | – | – |
| 14A9 hybridoma supernatant (antibody, mouse IgG1, V domains shown, Tested as supernatant of the hybridoma before subcloning; mouse IgG1 kappa; also called ML130-14A9.5B12) VH: EVQLVESGGGAVKPGGSLTLSCAASGFTFSNHYMYWVRQTPEKRLEWVASISDGGAYTFYPDTVKGRFTISRDNVNNNLYLQMRHLKSEDTAMYYCTREESANNGFAFWGQGTLVTVSA VL: DVLMTQTPLSLPVSLGDQASISCRSSQSILHSNGNTYLEWYLQKPGQSPNLLIYRVSNRFSGVPDRFSGSGSGTDFTLKISRVEAEDLGVYYCFQGAHVPFTFGSGTKLEIKR | 0.376 OD450 | 0.208 OD450 | 0.121 OD450 | – | – | – | – | – | – | – | – | – | – | – | – | – | – | – |
